Results as given in a protein production outcome set (Wang et al. 2014).

Test: label from the status in PepcDB records
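Also: failed if final PepcDB status was selected cloned or expressed and not failed if soluble or beyond.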

Sequence | protein production
MKPSCRPGAALEADRCPSFPDRSAATPHRGLAWAMAVVLIGGCATTRDIEQLQTTSQREPTNAQLKLKYMDERDRQVKDLLDGADRLRLIHDFDRAQVLLLQALRLDPGNERGRRIAAAIDVDRRNGAVLQEAERMMARGSYDGAAERVERVLAETPNDAGALRLYREISEKRRLQKQAAEEKNAAASIMRKPVSLQFRDANVRMVFEALSRTTGLSVIFDRDVRVDLKTTIFVSNASLEDTVDMILLQNQLAKKVLNANTVFIYPATPAKQQEYQDLKVRTFQLSNTDAKHIDTLLKNLLKIKEIVTDERANTVSIRATPETIRVAERMIAAQDLPEPEVMLEVEVLEVSRDRLTDLGIDWPNSFSLGTPSSASTWGALHHLTVNQLTASGLSVTANLKLTDTDANLLASPRIRTRNKEKAKILIGDKVPVISSSSVPSTSGPVYSQSIQYLDVGIKLEVEPQVYRDNDVGIKMSLEVSNITQIISSSNAQTGLSSLAYQIGTRNASTTLRLKDGETQILGGLIQDEDRDAANKVPGLGQLPVLGRLFSNHNGDHKKTEIVLQITPHIVRPQLAADADTREIWSGTDSTVRTEQLRLDPPGVAAPATPAAPAAPAAALPAPAAGVAVVSPGAVGGGTTGGEQTPKAAAPAAAGGVVPPNGAFGQPPAAPRTTPPPAMFGGRFMTTVPPPEGVVPPAPPAPAAAPAAVAAPAAAAPAAPAAGTAGPEAAAAVSPTEAAPPAPAPAAPYTPAPAAPAAAPPAASPPPIVPTPPSDMPSDNPLHPIPTGAY | failed
MNNSFRNKIHEQSKENLSDDRHKKSDRTLIVFNRKTPLYFYFFEQVRYITGSIYILIETPSSRNLPIYSNICIPISSHPNTNYRPKKRKKNPPTVYLTTIILIMGLLSLEDTIKEKLKDRKNAHFMLVDGMSKLLTEKVKNCQSLDFQVSGVKWRLVIRLSRGRKDHLSFVLEITDEKCTGSTWDVKFNFKIGIVPQTGPDYCFVLVGHQNEKKRSQGLANFISHTDLKERFLVNDKAGFYAEISDVQPNFPVTRIPRTMGTAERFKLIEFSPKNSRFTWKITQFSSFDGEEHSSYEFTVGPRRWKLVMYPKGNGDGKGNSLSLYLFASDYVTNGPKGGTLAIYKLRVLDQLNRNHCETECRYWFPYNPVNQMDSLWGRPKFLPLEELHKSSRGFLVNDQIYIGVEISIVSTTEYL | failed
MPDPIFSVSDARRSGTRLIGFGIGAIVVILATAATFLLLTLPDANAFNARVERVFIENDLTTQAEIRLLEILAQSGTAFADTLSSYRMVIFVLLVFASAMMIAALAFLVMLVLLNRRMAQIERTGIQVTSLLISREENTVYLNNMEFQLTPAAIETLAVLAEARMDDDVLSGAQIEAVISGRDASDCEEAAGATRIKRLRDTLGNQMISALLVKNIAKRGYMLAIEKSVIQMV | failed
MRRLLFLSLAGLWLFSPAAAAQLPGLISQPLAGGGQSWSLSVQTLVFITSLTFLPAILLMMTSFTRIIIVFGLLRNALGTPSAPPNQVLLGLALFLTFFIMSPVIDKIYVDAYQPFSEQKISMQEALDKGAQPLRAFMLRQTREADLALFARLANSGPLQGPEAVPMRILLPAYVTSELKTAFQIGFTIFIPFLIIDLVIASVLMALGMMMVPPATIALPFKLMLFVLVDGWQLLMGSLAQSFYS | failed
MMDSCIRIAGIIGESIVDGPGIRLVVFAQGCPHHCPGCHNPETHAYEGGKSVAIAEILQRLAMNPLLDGITLSGGEPFAQAAGFALLAQSARQRGFHVMTYSGYTYEELTASSEQNPAWALLLEQTDLLVDGPFQLAERNLLLPFRGSENQRVIDVQESLRQGKVVLASVLEHHHHHH | failed
AIDVSAKSAIIIDGASGRVLYAKDEHQKRRIASITKIMTAVLAIESGKMDQTVTVSANAVRTEGSAIYLTEGQKVKLKDLVYGLMLRSGNDAAVAIAEHVGGSLDGFVYMMNQKAEQLGMKNTRFQNPHGLDDHENHYSTAYDMAILTKYAMKLKDYQKISGTKIYKAETMESVWKNKNKLLTMLYPYSTGGKTGYTKLAKRTLVSTASKDGIDLIAVTINDPNDWDDHMKMFNYVFEHYQTYLIAKKGDIPKLKGTFYESKAFIKRDITYLLTEEEKENVKINTTLLKPKKAWEKDASKIPDIVGHMEIMFNDATIAKVPIYYENERHQK | not failed
MTYRDFIGRLKENGKLVEIQQPVSPIFEASRIAKKTKGPVLFHNVSGSKVIMNLLGSRDELSSMLGVPKEEIIKKLSEVSPEGEVRLVPGSPTLEVIESEVDLTKLPILTHFEKDGAPYITAGIVVSEYEGVMNASIHRLMLVGKDKLAARLVPPRHTYLLHKKAAEKGETLPVAIVLGCDPTIIYATSTRVPAGKEFEYAAALRGTPVEVFECSNGIKVPHSEIILEGYIDTKERVDEGPFVDITGTYDMVRKEPVIHITRIIHRKDPIYHGILPAGPEHLLMMGVPYEPRIYRAVGEVTTVKNVVLTEGGCCYLHAVVQIEKQTEGDAKNAIMAAFAAHTSLKHVVVVDEDINIFDPNDVEFAIATRVKGDMDILTITNVRGSSLDPRGASDGTTTKVGIDATKVLIEKENFERAIIPEELEHHHHHH | failed
MLSIGSGKLLIGCVAGLLVLGGATLGLGIGGFADVPADSETTVGEDELEIRAVQTPTEIRPDEPLRVQLRLTNAGSETTTKQVALQLSGDGDQQSLETVATKQVEVSAAEPTNVTLTVEPEQLSSGEYTYAVAVGESSSPETTGSVAVLTPPTFVLDDTTENATIVRGTNVSIRANLTNAGAYRGVQTVRIAVDEDQNGQYTDAERLDESVYSLAGGQSQVSTATAHTTDMEPGRYQYKIATENTTATGTLSVQQPATFRVQNTTAPVNVTKGETANVSVVVKNVGDVDGTDNVTIRSDSLNTTYSRSVSLAANETTTVSIGVNTTNLSSGTHNHSLGTSTDTDPVSMTVQDSHFEVSDLDGPNVLYVGDMAVFSADVTNTGNITGTQSIQHRIDSDDDDRPEAYGVDRNVTLAPGESTRVRFEIDYTVTDSTEYPVEPLRLQTYVHGIYSEDARASTAMSVKPSWAKDGGSSSYSGSTSVSEGDRASLDEITQDKYGRHYDEVSGETKRQVEEIHERQPFADGLAAAEVRTREEIARQEYDADVKAGEKFNFTGLDIETQQKVESDFDAQFETDSGDRIESWDELANDTYETSYENLTTSRQADIRTTYQDQFE | failed
MLGMGVFKQLIKGLYEWLLHSIDVATQHLVAIVLKISVVKYLIKEFHDRFIYFIDLIAQHFIIVALSSFLVLVFGVLIGVLVFYNSKARAFLLPVVNFLYTIPSLALFALFIPVIGVGLKNALLVLVLYGLLPIVHSTYNALKEVREEVIKAAIGLGCNPKELFFKVRFLLAIPQILAGLRIAVVMLVAMAGIGALIGAGGLGQAIFRGLNTQNTTLLVAGSLIIALFSVLADKFVSVFQHENALQRLFSQNATKKQKRRVYTNLAVFLFLLLASALWLIPRNAIEEKPLVVATKPSSEQYILGEILSLLLEKHHIPIKRAFGIGGGTMNIHPALIRGDFDLYVEYTGTAWVNTLKNPLTQKVDFETIKKRYEKEFNLLWVGLLGFNNTYSLAISKEDAQKYAIETFSDLAFHSPNFDFGAEFDFFEREDAFKGLVKAYRFHFRSLHEMDINLRYKSFESHKINALDVFTTDAQIKELDLKVLKDDKGFFPNYQAGIVIRKEIVKKYPEALEILEKLDSKISDEKMQDLNYQVEVLKKSPQIVAKDFLERLGL | failed
ATPPISNLTKTASESISNLSEAGSIKKGERELKIGDRVLVGGTKAGVVRFLGETDFAKGEWCGVELDEPLGKNDGAVAGTRYFQCQPKYGLFAPVHKVTKIGFPSTTPAKAKANAVRRVMATTSASLKRSPSASSLSSMSSVASSVSSRPSRTGLLTET | not failed
MYLYLSLILLAFTLSLDSCSVGLTYGLRSVRIPLRSIIIIGMCSAAVMLVSMGIGHMIAKVFSPVIATRIGGLVLIGIGIWVLYQFFRSERKEEPKQEEKVWKLEIASLGLVIQILRKPTVADFDKSGTISAGEALLLGIALSVDSFGAGIGASLLGYAPAMMAILVAVMSSLFLFIGMKLGTVLSNMKWLQKFTFLPGVLLIIIGIWKM | failed
MTGRIVHFEIPFDDGDRARAFYRDAFGWAIAEIPDMDYSMVTTGPVGESGMPDEPGYINGGMMQRGEVTTPVVTVDVESIESALERIESLGGKTVTGRTPVGNMGFAAYFTDSEGNVVGLWETAR | not failed
MVGKMNEWELALKNKDCKKLLELFDDYFDEVSEDKLEEELKRVGEVAVECEDFDLIHEIAHIYEHLGEAEKGIDLYKRIVEKRKGRNTEDYAEALYYLADAYDHFGMPEEALKTYEELLELEKRIGNKREIGLTLANLAIIKDELGNVEEAIKLMEEARKIFEELKDENNYLISLIDLAHFKYELGEYEEAMKLIREVLRNPVDKEIEVNARLVESEIYAGERKYKEAAISLRNALQRSEDDEELFSLVFDSLTEFLEGLFNESRYRELVEVSPLFAELFEDDTKYFFNAIKGLAEWRLGNEKAREEFEENYKNIQNEELKALLDEWRRPKLSLGLNL | failed
MNQFGPSALINLSNFSSIKPEPASTPPQGSMANSTAVVKIPGTPGAGGRLSPENNQVLTKKKLQDLVREVDPNEQLDEDVEEMLLQIADDFIESVVTAACQLARHRKSSTLEVKDVQLHLERQWNMWIPGFGSEEIRPYKKACTTEAHKQRMALIRKTTKK | failed
MFPGVFEHLLYQYTSAILSVGFLIFNGLFAVIYNPKKVVGIKGDPDYTFTDITVLIPVYNEVEDIFRKVIKSVSSMGLKFVVVGDGVDQPYRAITEQNGGIFIRLEERRGKRFALSEGMRYIDTRLVLLLDSDTFIDKRSLERMLSYMAEDVGGVSPSIRVWNNGKISYYYANFYEIMSEIVNRATSYFGRTIILSGQCVLYKTSAIRNYVMSNDFTSSKIFNISLKISDDRDLTEYIIERGYKAIKAIDAIAYTKPPENLSQFVKQVVRWTRANYLFFLRSLRDGSLSLRGNLYVFDIIYMNFLPILVIFSLIPLQYPRFDIFNTLSASITSLERLDIFQLILGIPIRAHLPPFDFVLVFILPRVLSIIGGVTFLLVMIKIMEKERGKTLMYGVIALIVQSLASFYSIASMWKQSWSSREKNRKSKK | failed
AASEAEYGKVSKAWTLHADGSQEYRSSMELTLFTHTAMNSTYGESFIVYNPDFQTLKIHSSYTRQKDGTIVKTPDNAFVEVLPRFAADAPAYNQLKEMVVVHTGLELGATIYLDYSIITKPGYYPALDINERLQETSPVKECKVSISVPEGTPLACGLYGSPVKAVEESHDGIKEVHWTLRNIPASSREAFQPKNREASPHLVASTYPSGKAALATLDKRLKESQGYESKTFAQFLTDKSGNEQEKVNIIRDHILNNLSTCPIPMAMTGYTVRDIDTVLRSAYGTPLEIAQLLNVMLNAAGIPSEVLAVYPGHLDTDACGLAAIQTLAVKATVDGKDQYLSASPLTNRGGLDKVVSLSGTSIEIETTPIQIKESRSVAISADQAKDGFAICVLPAISAGIDSWGMSALNSKRSNLFELPSLIREEVTYTVTPAEGMKLQTSTQEQVISKPFGKVTRTITPRGNTIEVVRTIELNKQQFTPAEYSDVRSLIHEWTNPDNRVLLFSL | not failed
MSRILVLAVVALALLNPLFLVVHSLPTGVSAHDGPIYTNAVLGYANITSLQAYNSSFNVPYGASLQLNVVLEATSTNGNTYYFWLQNVAQFVTNESLMCFTDNVWNYTTATAEISNVTGNGGIGFTYNILFGHPTFYGYSTEPMPYRFPLALYLLINESLSSNGVIVNFIYVVLQNGSLVPPHPVTYDSVFIPVPDPQSAYIIVNDSLTPSAVVLNFTLFYQEALGNLMDTELVWGGYENGEFTTFTQMSSYLGLFYLSGNSFVPFSTVYTYGNDTAESTGDLYVSIASNGDAYVTVGTPDYGLLTDSFHPYIPGFTFVNVTSKVPFLVNGTYTNSFVGYVVHPVTITFYRNYTVNSSSYAVLDYPSQSLTITPSNTFKNVIITPQYTYYYKVIVNSSRPLLLNISGKETLTNGTLWLPQGTSVSLVNNTYYVSSGERFVVNNTYPNLPLTVENPTTITVTLEKQFKLTINSPIPLLLSINGKSRLFNGTTWVLQGSAVELVNNTYYVSSGERYVVSSISPSTPIEVSGPMNISVELVKEYKVEIVSSQPVMATIKGETEPVNGTAWLPQGSVIHLTANLPVYLKGYFVGTYNASPGEQVTINGPIYEKLVVQLNYTFLEELVIPIVTAVVIVVAITRRR | failed
